This test addresses His-caltubin-Tat (cell-penetrating caltubin) (Lymnaea stagnalis | HIV). Briefly: ITC. On the technique in general: ITC needs no label: the signal is the heat of the interaction.

Molecule Ac-LDHKFDLMYAKRAFV-NH2 [L391 peptide (synthetic, TUBA1 L391-V405)] had a Kd of 3.42 µM.

A word on the Kd: it is the free concentration of one partner at which half of the binding sites on the other are occupied at equilibrium, for simple one-to-one binding. Low values mean higher affinity, high ones lower affinity.

Source of the values: doi:10.1101/2023.01.23.525163.
